Source: article PMC11535027, “Structural basis of substrate recognition and allosteric activation of the proapoptotic mitochondrial HtrA2 protease” (Nature Communications, 2024)

B3: isolated HtrA2-PDZ domain (residues 349–458) (domain or fragment, human, UniProt O43464 349-458, looked up)
chain: NSSSGISGSQRRYIGVMMLTLSPSILAELQLREPSFPDVQHGVLIHKVILGSPAHRAGLRPGDVILAIGEQMVQNAEDVYEAVRTQSQLAVQIRRGRETLTLYVTPEVTE
notes: HtrA2 (Omi), human mitochondrial serine protease, carboxy-terminal PDZ domain, residues 349-458 of the full-length protein of 458 residues; Constructs were either amino-terminally SUMO-His6-tagged (pET28b; tag removed with SENP1) or carboxy-terminally His6-tagged (pET21b); Isotope-labelled for NMR; also called ALVIT-PDZ; source: E. coli BL21 (λDE3), purified (Ni2+-HisTrap, gel filtration)

Columns and labels:
wild-type mature HtrA2 = biological target: T1, wild-type mature HtrA2 (human, UniProt O43464 134-458); assay: cell-based or functional assay
T1 sequence (looked up): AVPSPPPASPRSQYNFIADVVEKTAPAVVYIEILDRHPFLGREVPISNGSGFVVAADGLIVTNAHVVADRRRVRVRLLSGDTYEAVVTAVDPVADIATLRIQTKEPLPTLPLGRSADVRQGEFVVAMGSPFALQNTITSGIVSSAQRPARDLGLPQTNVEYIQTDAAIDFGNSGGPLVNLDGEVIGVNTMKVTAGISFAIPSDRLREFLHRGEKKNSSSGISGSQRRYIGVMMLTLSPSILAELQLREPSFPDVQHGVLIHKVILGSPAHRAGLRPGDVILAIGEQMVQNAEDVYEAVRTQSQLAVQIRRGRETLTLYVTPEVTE

[1] = biological target: B3; assay: NMR titration; DD-PDZOpt titrated to HtrA2-PDZ, 2D [15N,1H] and 2D [13C,1H] spectra (ALVIT methyl-labelled PDZ); line-shape analysis with TITAN, two-state ligand binding model; 298 K; conditions: both partners purified
[2] = biological target: the molecule itself; assay: SEC-MALS; HtrA2-PDZ loaded at 100-800 µM, Superdex Increase 200 10/300 GL, HBS (20 mM HEPES, 150 mM NaCl) pH 7.4, RT (~297 K), with Mg2+ (+MgCl2 in the figure, MgSO4 in Supplementary Table 1); monomer to dimer; KD given as a lower limit
[3] = biological target: the molecule itself; assay: SEC-MALS; HtrA2-PDZ loaded at 100-800 µM, Superdex Increase 200 10/300 GL, HBS (20 mM HEPES, 150 mM NaCl) pH 7.4, RT (~297 K), with CaCl2; monomer to dimer; KD given as a lower limit
[4] = biological target: the molecule itself; assay: SEC-MALS; HtrA2-PDZ loaded at 100-800 µM, Superdex Increase 200 10/300 GL, HBS (20 mM HEPES, 150 mM NaCl) pH 7.4, RT (~297 K), with ZnSO4; monomer to dimer; KD given as a lower limit
[5] = biological target: the molecule itself; assay: SEC-MALS; HtrA2-PDZ loaded at 100-800 µM, Superdex Increase 200 10/300 GL, HBS (20 mM HEPES, 150 mM NaCl) pH 7.4, RT (~297 K), with CuCl2; monomer to dimer; KD given as a lower limit
[6] = biological target: the molecule itself; assay: SEC-MALS; HtrA2-PDZ at a range of concentrations, Superdex Increase 200 10/300 GL, PBS pH 7.4, RT (~297 K); KD fitted assuming a fast monomer-dimer equilibrium; dimer to monomers; lower limit because the concentration range was limited by solubility
[7] = biological target: the molecule itself; assay: SEC-MALS; HtrA2-PDZ in the presence of the activating peptide DD-PDZOpt; dimer to monomers
[8] = biological target: the molecule itself; assay: SEC-MALS; HtrA2-PDZ in HBS (20 mM HEPES, 150 mM NaCl) pH 7.4 supplemented with Zn2+, compared with the non-supplemented buffer; dimer to monomers
[9] = biological target: T2, wild-type mature human HtrA2 (human); assay: fluorescence cleavage assay (cleavage rate of H2Opt against DD-PDZOpt concentration, one-site binding model); apparent; 510 nM wild-type HtrA2 (monomeric concentration), 20 µM H2Opt, DD-PDZOpt varied, 20 mM HEPES pH 7.4, no EDTA, 2 mM CaCl2, 313 K; conditions: both partners purified
T2 construct: made from the S306A construct that the methods name HtrA2^133–458; also called wild-type HtrA2; Omi; source: E. coli BL21 (λDE3), purified (Ni-HisTrap, gel filtration)
T2 chain: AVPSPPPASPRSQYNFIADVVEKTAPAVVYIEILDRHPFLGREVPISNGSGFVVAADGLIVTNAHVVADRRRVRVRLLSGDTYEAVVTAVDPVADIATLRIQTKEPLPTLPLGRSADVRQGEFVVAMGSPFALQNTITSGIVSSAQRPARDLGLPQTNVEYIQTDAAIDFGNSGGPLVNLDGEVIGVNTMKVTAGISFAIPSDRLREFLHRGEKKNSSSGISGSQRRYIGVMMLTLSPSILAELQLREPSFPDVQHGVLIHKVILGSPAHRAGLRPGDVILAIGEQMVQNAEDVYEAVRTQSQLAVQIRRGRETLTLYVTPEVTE

[10] = biological target: T2, wild-type mature human HtrA2; assay: fluorescence cleavage assay (cleavage rate of H2Opt against DD-PDZOpt concentration, one-site binding model); apparent; 510 nM wild-type HtrA2 (monomeric concentration), 20 µM H2Opt, DD-PDZOpt varied, 20 mM HEPES pH 7.4, no EDTA, 2 mM MgSO4, 313 K; conditions: both partners purified
[11] = biological target: T2, wild-type mature human HtrA2; assay: fluorescence cleavage assay (cleavage rate of H2Opt against DD-PDZOpt concentration, one-site binding model); apparent; 510 nM wild-type HtrA2 (monomeric concentration), 20 µM H2Opt, DD-PDZOpt varied, 20 mM HEPES pH 7.4, 1 mM EDTA, 313 K; no additive; conditions: both partners purified
[12] = biological target: the molecule itself; assay: SEC-MALS; HtrA2^S306A at increasing concentrations in HBS pH 7.4 without divalent ions; multimerization KD fitted assuming a fast monomer-dimer equilibrium
[13] = biological target: the molecule itself; assay: SEC-MALS; HtrA2^S306A loaded at 5-7.5 mg/ml, Superdex Increase 200 10/300 GL, HBS pH 7.4, RT (~297 K), with 25 mM CaCl2; trimer to hexamer (fitted with the monomer-dimer equation); KD given as a lower limit
[14] = biological target: the molecule itself; assay: SEC-MALS; HtrA2^S306A loaded at 4-7.5 mg/ml, Superdex Increase 200 10/300 GL, HBS pH 7.4, RT (~297 K), no added metal ions; trimer to hexamer (fitted with the monomer-dimer equation); KD given as a lower limit

B1: DD-PDZOpt activating peptide (peptide)
peptide: DDGQYYFV
notes: source: synthetic peptide, bought: GenScript
apparent K_(D,app) of DD-PDZOpt from the H2Opt cleavage rate, with 2 mM Mg2+, as percent of that in standard assay buffer (wild-type mature HtrA2): ~50%
Kd [1]: 3.18 ± 0.9 µM

B2: isolated HtrA2-PDZ domain (residues 349–458) (domain or fragment, human)
chain: NSSSGISGSQRRYIGVMMLTLSPSILAELQLREPSFPDVQHGVLIHKVILGSPAHRAGLRPGDVILAIGEQMVQNAEDVYEAVRTQSQLAVQIRRGRETLTLYVTPEVTE
notes: human HtrA2 (Omi), PDZ domain, residues 349-458; also called HtrA2^349-458; ALVIT-PDZ; source: E. coli BL21 (λDE3), purified (Ni-HisTrap, SENP1 cleavage, gel filtration); not shown: 6xHis-SUMO, N-terminal, cleaved
Kd [2]: ≥ 3.52 mM
Kd [3]: ≥ 9.2 mM
Kd [4]: ≥ 250 µM
Kd [5]: ≥ 4.16 mM

B3
Kd [6]: ≥ 13 mM
Kd [7]: 10.3 ± 2.5 mM
fold increase of the propensity to dimerize with Zn2+ against the non-supplemented buffer [8]: ~50 fold

B4: DD-PDZOpt activating peptide (peptide)
peptide: DDGQYYFV
notes: as for B1
Kd [9]: 1530 nM
Kd [10]: 11.9 µM
Kd [11]: 27.9 µM

B5: full-length mature human HtrA2^133–458 S306A (enzyme, UniProt O43464 133-458, looked up)
chain: AAVPSPPPASPRSQYNFIADVVEKTAPAVVYIEILDRHPFLGREVPISNGSGFVVAADGLIVTNAHVVADRRRVRVRLLSGDTYEAVVTAVDPVADIATLRIQTKEPLPTLPLGRSADVRQGEFVVAMGSPFALQNTITSGIVSSAQRPARDLGLPQTNVEYIQTDAAIDFGNAGGPLVNLDGEVIGVNTMKVTAGISFAIPSDRLREFLHRGEKKNSSSGISGSQRRYIGVMMLTLSPSILAELQLREPSFPDVQHGVLIHKVILGSPAHRAGLRPGDVILAIGEQMVQNAEDVYEAVRTQSQLAVQIRRGRETLTLYVTPEVTE
notes: HtrA2 (Omi), human, mature form, residues 133-458 of the full-length protein of 458 residues, active site serine replaced (S306A); The purchased construct is named pET21b-HtrA2, and pET21b constructs are said to be carboxy-terminally His6-tagged; The purification text also describes removal of a SUMO-His6 tag; The introduction says that the mature protein lacks the 133 amino-terminal residues, …
Kd [12]: 500 to 1000 µM

B6: full-length mature human HtrA2 without the active site serine (S306A) (enzyme, UniProt O43464 134-458, looked up)
chain: AVPSPPPASPRSQYNFIADVVEKTAPAVVYIEILDRHPFLGREVPISNGSGFVVAADGLIVTNAHVVADRRRVRVRLLSGDTYEAVVTAVDPVADIATLRIQTKEPLPTLPLGRSADVRQGEFVVAMGSPFALQNTITSGIVSSAQRPARDLGLPQTNVEYIQTDAAIDFGNAGGPLVNLDGEVIGVNTMKVTAGISFAIPSDRLREFLHRGEKKNSSSGISGSQRRYIGVMMLTLSPSILAELQLREPSFPDVQHGVLIHKVILGSPAHRAGLRPGDVILAIGEQMVQNAEDVYEAVRTQSQLAVQIRRGRETLTLYVTPEVTE
notes: human HtrA2 (Omi), mature form; the methods name the construct HtrA2^133–458; the SEC-MALS constants are of the trimer to hexamer step; also called HtrA2^S306A; MALVI^proS-HtrA2^S306A; source: E. coli BL21 (λDE3), purified (Ni-HisTrap, gel filtration)
Kd [13]: ≥ 490 µM
Kd [14]: ≥ 960 µM
